Patent US20110142842A1 (MEDINNOVA, published 2011)

B1: Peptide ID 9 GMDRYLIYV (CD18) (peptide)
peptide: GMDRYLIYV
B2: Peptide ID 96 KMIMNSLSL (CD20) (peptide)
peptide: KMIMNSLSL
B3: Peptide ID 104 LMSFFILLL (CD53) (peptide)
peptide: LMSFFILLL
B4: Peptide ID 100 VLWPRACWT (CD50) (peptide)
peptide: VLWPRACWT
B5: Peptide ID 98 KLKDLFTEL (CD11a) (peptide)
peptide: KLKDLFTEL
B6: Peptide ID 95 RMPWYHSSL (ZAP-70) (peptide)
peptide: RMPWYHSSL
B7: Peptide ID 102 WLSAAPTSL (CD33) (peptide)
peptide: WLSAAPTSL
B8: Peptide ID 99 GMVFSLLQV (CD127) (peptide)
peptide: GMVFSLLQV
B9: Peptide ID 97 TLWQLVEYL (ZAP-70) (peptide)
peptide: TLWQLVEYL
B10: Peptide ID 103 ELSEDSSNV (CD18) (peptide)
peptide: ELSEDSSNV
B11: Peptide ID 101 NVAELLHQV (ZAP-70) (peptide)
peptide: NVAELLHQV

Biological target: HLA-A*0201 (human, UniProt A*02:01)
Assay: REVEAL MHC binding assay (ProImmune)

Binder | % Pass/fail control
B1 | 170 % of pass/fail control
B2 | 213 % of pass/fail control
B3 | 161 % of pass/fail control
B4 | 139 % of pass/fail control
B5 | 171 % of pass/fail control
B6 | 85.6 % of pass/fail control
B7 | 207 % of pass/fail control
B8 | 175 % of pass/fail control
B9 | 198 % of pass/fail control
B10 | 139 % of pass/fail control
B11 | 200 % of pass/fail control
